Source: patent US20170088632A1 (OMEROS, published 2017)
Where “and” joins values, the source holds several entries; their conditions need not be identical. Identical values can stand only once. Like-named read-outs stand apart in the source and are kept apart here.

What was measured:
human MASP-2 [1] = molecular target: T1, human MASP-2 (human, UniProt O00187 16-686); assay: cell-based or functional assay
human MASP-2 [2] = molecular target: T1, human MASP-2; assay: cell-based or functional assay; remark: listed apart in the source
[3] = molecular target: T2, rat MASP-2 (in rat serum) (rat, UniProt Q9JJS8 20-685); assay: cell-based or functional assay
T2 sequence (Q9JJS8 other isoform, or with tags, fused parts or gaps limits assumed): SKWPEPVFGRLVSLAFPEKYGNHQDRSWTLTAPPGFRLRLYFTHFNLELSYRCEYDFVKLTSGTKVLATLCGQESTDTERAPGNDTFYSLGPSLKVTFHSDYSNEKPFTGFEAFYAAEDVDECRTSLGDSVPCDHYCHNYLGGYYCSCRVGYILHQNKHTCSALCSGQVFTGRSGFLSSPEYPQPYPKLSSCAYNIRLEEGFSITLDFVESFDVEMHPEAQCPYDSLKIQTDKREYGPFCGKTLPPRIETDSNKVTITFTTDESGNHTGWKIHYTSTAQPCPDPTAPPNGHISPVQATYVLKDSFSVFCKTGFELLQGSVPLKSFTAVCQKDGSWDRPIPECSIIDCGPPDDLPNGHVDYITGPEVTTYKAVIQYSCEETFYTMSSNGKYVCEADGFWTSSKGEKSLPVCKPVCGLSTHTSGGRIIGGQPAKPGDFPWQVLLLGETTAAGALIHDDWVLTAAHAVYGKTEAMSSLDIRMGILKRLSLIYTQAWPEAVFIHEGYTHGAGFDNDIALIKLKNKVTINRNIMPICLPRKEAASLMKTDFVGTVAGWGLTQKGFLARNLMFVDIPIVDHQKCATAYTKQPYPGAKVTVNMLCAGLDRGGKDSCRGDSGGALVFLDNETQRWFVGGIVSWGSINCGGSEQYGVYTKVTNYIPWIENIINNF

[4] = molecular target: T3, African Green monkey MASP-2 (in African Green monkey serum) (African Green monkey); assay: cell-based or functional assay
human MASP-2 [5] = molecular target: T1, human MASP-2; assay: cell-based or functional assay; remark: listed apart in the source
[6] = molecular target: T3, African Green monkey MASP-2 (in African …); assay: cell-based or functional assay; remark: listed apart in the source
human MASP-2 [7] = molecular target: T1, human MASP-2; assay: cell-based or functional assay; remark: listed apart in the source
human MASP-2 [8] = molecular target: T1, human MASP-2; assay: cell-based or functional assay; remark: listed apart in the source
human MASP-2 [9] = molecular target: T1, human MASP-2; assay: titration ELISA on MASP-2 (10 µg/ml)
[10] = molecular target: T4, human MASP-2A (catalytically inactive human MASP-2, Ser618 to Ala618) (human, UniProt O00187 16-686); assay: SPR (Biacore), scFv captured by anti-cMyc antibody, MASP-2A in solution
T4 construct: the ELISA and Biacore methods say only 'MASP-2A', so a tag may have been present; also called huMASP2A; huMASP-2A
T4 sequence (O00187 16-686 S633A): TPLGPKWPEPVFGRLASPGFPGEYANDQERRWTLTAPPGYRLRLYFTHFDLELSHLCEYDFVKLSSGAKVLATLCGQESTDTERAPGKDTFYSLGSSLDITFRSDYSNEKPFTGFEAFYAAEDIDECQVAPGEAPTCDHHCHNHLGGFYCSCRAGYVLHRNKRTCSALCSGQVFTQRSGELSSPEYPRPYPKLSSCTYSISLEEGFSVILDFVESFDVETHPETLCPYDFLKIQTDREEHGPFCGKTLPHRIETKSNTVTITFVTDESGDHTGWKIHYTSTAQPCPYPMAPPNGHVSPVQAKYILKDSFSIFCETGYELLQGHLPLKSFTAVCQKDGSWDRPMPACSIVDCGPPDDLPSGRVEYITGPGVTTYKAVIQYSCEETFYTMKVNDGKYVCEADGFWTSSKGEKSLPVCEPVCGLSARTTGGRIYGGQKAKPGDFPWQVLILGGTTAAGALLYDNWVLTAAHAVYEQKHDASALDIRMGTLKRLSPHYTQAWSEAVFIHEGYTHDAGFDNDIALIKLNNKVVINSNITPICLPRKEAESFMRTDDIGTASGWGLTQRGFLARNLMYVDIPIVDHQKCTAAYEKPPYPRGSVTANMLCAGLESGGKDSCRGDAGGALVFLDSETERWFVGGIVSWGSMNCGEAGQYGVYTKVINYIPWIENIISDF

[11] = molecular target: T4, human MASP-2A (catalytically inactive …); assay: ELISA, purified scFv titrated on physically adsorbed human MASP-2A
[12] = molecular target: T4, human MASP-2A (catalytically inactive …); assay: SPR (Biacore), MASP-2A amine coupled to CM5 chip, scFv monomer in solution
[13] = molecular target: T4, human MASP-2A (catalytically inactive …); assay: titration ELISA on coated human MASP-2A ('Binding affinity'), IgG4 mutated format
Description: (§1) The clones were then purified and re-tested in an ELISA and activity assay as follows. Human MASP-2A was coated at 3 μg/ml in PBS on a maxisorp plate, IgG (45 μg/ml) and Fab′2 (30 μg/ml) were diluted in PBS-Tween to a starting concentration of 300 nM, and further with 3-fold dilutions. IgGs were detected with HRP conjugated Goat α-Human IgG (Southern Biotech) and the F(ab′)2 were detected with HRP-conjugated Goat α-Human IgG H+L (Pierce 31412). The reaction was developed with TMB substrate and stopped with 2M H₂SO₄.

[14] = molecular target: T4, human MASP-2A (catalytically inactive …); assay: titration ELISA on coated human MASP-2A ('Binding affinity'), F(ab′)2
Description: as §1

human MASP-2 [15] = molecular target: T1, human MASP-2; assay: cell-based or functional assay; remark: listed apart in the source
human MASP-2 [16] = molecular target: T1, human MASP-2; assay: cell-based or functional assay; remark: listed apart in the source
[17] = molecular target: T4, human MASP-2A (catalytically inactive …); assay: SPR (Biacore), scFv captured by anti-cMyc antibody, MASP-2A in solution; MASP-2 in solution, scFv captured (not immobilized MASP-2)
human MASP-2 [18] = molecular target: T1, human MASP-2; assay: cell-based or functional assay; remark: listed apart in the source
human MASP-2 [19] = molecular target: T1, human MASP-2; assay: cell-based or functional assay; remark: listed apart in the source
[20] = molecular target: T2, rat MASP-2 (in rat serum); assay: cell-based or functional assay; remark: listed apart in the source
[21] = molecular target: T3, African Green monkey MASP-2 (in African …); assay: cell-based or functional assay; remark: listed apart in the source
[22] = molecular target: T4, human MASP-2A (catalytically inactive …); assay: ELISA on adsorbed human MASP-2A, purified scFv monomer
[23] = molecular target: T4, human MASP-2A (catalytically inactive …); assay: ELISA, purified scFv titrated on physically adsorbed human MASP-2A; remark: listed apart in the source

T1 sequence (O00187 16-686): as the sequence (O00187 16-686 S633A) above, with A618S counted along it

B1: scFv mother clone 17D20 (scFv)
scFv: QVTLKESGPVLVKPTETLTLTCTVSGFSLSRGKMGVSWIRQPPGKALEWLAHIFSSDEKSYRTSLKSRLTISKDTSKNQVVLTMTNMDPVDTATYYCARIRAGGIDYWGQGTLVTVSSKLSGSASAPKLEEGEFSEARVQPVLTQPPSVSVSPGQTASITCSGDKLGDKFAYWYQQKPGHSPVLVIYQDNKRPSGIPGRFSGSNSGNTATLTISGTQAMDEADYYCQAWDSSTAVFGTGTKVTVLAAAGSEQKLISEEDLNSHHHHHH
notes: also called 17D20 (17P10); 17D20mc
Inhibitory activity in Human Serum IC50 (C3b deposition, 0.5% human serum) (human MASP-2 [1]): 157 nM | Functional IC50, C3b deposition, human serum Exp #1 (human MASP-2 [2]): 157 nM | Functional IC50, C3b deposition, human serum Exp #2 (human MASP-2 [2]): 39.9 nM | Functional IC50, C3b deposition, human serum Exp #3 (human MASP-2 [2]): 24.1 nM | Functional IC50, C3b deposition, human serum Exp #4 (human MASP-2 [2]): 23.7 nM | Functional IC50, C3b deposition, rat serum Exp #1 [3]: 434 nM | Functional IC50, C3b deposition, non-human primate serum Exp #1 [4]: 94.8 nM | Functional IC50, C3b deposition, non-human primate serum Exp #2 [4]: 71.8 nM | C3 Assay IC50 in dilute serum (1%), human serum Exp #1 (human MASP-2 [5]): 24 nM | C3 Assay IC50 in dilute serum (1%), human serum Exp #2 (human MASP-2 [5]): 24 nM | C3 Assay IC50 in dilute serum (1%), human serum Exp #3 (human MASP-2 [5]): 40 nM | C3 Assay IC50 in dilute serum (1%), human serum mean (human MASP-2 [5]): 29 nM | C3 Assay IC50, non-human primate serum Exp #1 [6]: 94 nM | C3 Assay IC50, non-human primate serum Exp #2 [6]: 74 nM | C3 Assay IC50, non-human primate serum mean [6]: 84 nM | C3 convertase assay using 1% human serum, IC50 (first experiment) (human MASP-2 [7]): 98.3 nM | C3 convertase assay using 1% human serum, IC50 (second experiment) (human MASP-2 [7]): 151 nM | 1% human serum C3 assay IC50 (human MASP-2 [8]): 38 nM | Kd (human MASP-2 [9]): 1.9 nM | Kd [10]: 0.76 nM | EC50 (read off the curve) [11]: ~2 nM | Kd [12]: 11.3 nM

B2: scFv daughter clone 17D20m_d21N11 (scFv)
scFv: QVTLKESGPVLVKPTETLTLTCTVSGFSLSRGKMGVSWIRQPPGKALEWLAHIFSSDEKSYRTSLKSRLTISKDTSKNQVVLTMTNMDPVDTATYYCARIRAGGIDYWGQGTLVTVSSKLSGSASAPKLEEGEFSEARVQPVLTQPPSLSVSPGQTASITCSGEKLGDKYAYWYQQKPGQSPVLVMYQDKQRPSGIPERFSGSNSGNTATLTISGTQAMDEADYYCQAWDSSTAVFGGGTKLTVL
1% human serum C3 assay IC50 (human MASP-2 [8]): 360 nM | 90% human serum C4 assay IC50 (human MASP-2 [8]): ~500 nM | Kd (human MASP-2 [9]): 10 nM | EC50 (read off the curve) [11]: ~3 nM

B3: 17N16 mother clone, IgG4 hinge mutant (S228P) format (antibody, V domains shown)
VH: QVQLQQSGPGLVKPSQTLSLTCAISGDSVSSTSAAWNWIRQSPSRGLEWLGRTYYRSKWYNDYAVSVKSRITINPDTSKNQFSLQLNSVTPEDTAVYYCARDPFGVPFDIWGQGTMVTVSS
VL: SYVLTQPPSVSVAPGQTARITCGGNNIGSKNVHWYQQKPGQAPVLVVYDDSDRPSGIPERFSGSNSGNTATLTVSRVEAGDEADYYCQVWDTTTDHVVFGGGTKLTVL
notes: IgG4 S228P; also called 17N16 IgG4 mutated format
Kd [13]: 0.0206 nM

B4: 17N16 mother clone, F(ab′)2 format (Fab, V domains shown)
VH: QVQLQQSGPGLVKPSQTLSLTCAISGDSVSSTSAAWNWIRQSPSRGLEWLGRTYYRSKWYNDYAVSVKSRITINPDTSKNQFSLQLNSVTPEDTAVYYCARDPFGVPFDIWGQGTMVTVSS
VL: SYVLTQPPSVSVAPGQTARITCGGNNIGSKNVHWYQQKPGQAPVLVVYDDSDRPSGIPERFSGSNSGNTATLTVSRVEAGDEADYYCQVWDTTTDHVVFGGGTKLTVL
notes: also called 17N16 F(ab′)2
Kd [14]: 0.0959 nM

B5: 17D20 mother clone, IgG4 hinge mutant (S228P) format (antibody, V domains shown)
VH: QVTLKESGPVLVKPTETLTLTCTVSGFSLSRGKMGVSWIRQPPGKALEWLAHIFSSDEKSYRTSLKSRLTISKDTSKNQVVLTMTNMDPVDTATYYCARIRAGGIDYWGQGTLVTVSS
VL: QPVLTQPPSVSVSPGQTASITCSGDKLGDKFAYWYQQKPGHSPVLVIYQDNKRPSGIPGRFSGSNSGNTATLTISGTQAMDEADYYCQAWDSSTAVFGTGTKVTVLA
notes: IgG4 S228P; also called 17D20 IgG4 mutated format; 17D20 IgG4 S228P
C4b deposition in 90% human serum, IC50 relative to the C3b deposition assay (human MASP-2 [15]): ~3 fold | C3b deposition assay in 1% human serum, IC50 (human MASP-2 [16]): 11 nM and 27 nM | Kd [13]: 0.0284 nM

B6: 17D20 mother clone, F(ab′)2 format (Fab, V domains shown)
VH: QVTLKESGPVLVKPTETLTLTCTVSGFSLSRGKMGVSWIRQPPGKALEWLAHIFSSDEKSYRTSLKSRLTISKDTSKNQVVLTMTNMDPVDTATYYCARIRAGGIDYWGQGTLVTVSS
VL: QPVLTQPPSVSVSPGQTASITCSGDKLGDKFAYWYQQKPGHSPVLVIYQDNKRPSGIPGRFSGSNSGNTATLTISGTQAMDEADYYCQAWDSSTAVFGTGTKVTVLA
notes: also called 17D20 F(ab′)2
C3 convertase assay using 1% human serum, IC50 (first experiment) (human MASP-2 [7]): 7.3 nM | C3 convertase assay using 1% human serum, IC50 (second experiment) (human MASP-2 [7]): 13.5 nM | Kd [14]: 0.181 nM

B7: scFv mother clone 17L20 (scFv)
scFv: EVQLQQSGPGLVKPSQTLSLTCAISGDSVSSKRAAWDWIRQSPSRGLEWLGRTYYRSKWFNDYAISVKSRITINADTSRNQFSLQLNSVTPEDTAVYYCVKSNSGTGAFDSWGQGTLVTVSSKLSGSASAPKLEEGEFSEARVQPGLTQPPSVSVSPGQTARITCSRDKLGDKYVSWYQQKPGQSPVVVMYKDNKRPSGIPERFSGSNSGNTATLTISGTQAMDEADYYCQAWDSSTAGVFGGGTKLTVLAAAGSEQKLISEEDLNSHHHHHH
Functional IC50, C3b deposition, human serum Exp #2 (human MASP-2 [2]): 104 nM | Functional IC50, C3b deposition, human serum Exp #3 (human MASP-2 [2]): 308 nM | Functional IC50, C3b deposition, human serum Exp #4 (human MASP-2 [2]): 199 nM | Functional IC50, C3b deposition, rat serum Exp #1 [3]: 41 nM | Functional IC50, C3b deposition, non-human primate serum Exp #2 [4]: 71.7 nM

B8: scFv mother clone 4D9 (scFv)
scFv: QITLKESGPVLVKPTETLTLTCTVSGFSLSNARMGVSWIRQPPGKALEWLAHIFSNDEKSYSTSLKSRLTISKDTSKSQVVLTMTNMDPVDTATYYCARMRYSSSLYGMDVWGQGTRVTVSSKLSGSASAPKLEEGEFSEARVSYELIQPPSVSVSPGQTASITCSGDKLGDKYVSWYQQKPGRSPVLVIYRDTKRPSGIPERFSGSNSGNTATLTISGTQAMDEADYYCQAWDSSTVVFGGGTKLTVLAAAGSEQKLISEEDLNSHHHHHH
notes: also called 4D9 (18L16)
Inhibitory activity in Human Serum IC50 (C3b deposition, 0.5% human serum) (human MASP-2 [1]): 22 nM | Functional IC50, C3b deposition, human serum Exp #1 (human MASP-2 [2]): 22 nM | Functional IC50, C3b deposition, human serum Exp #2 (human MASP-2 [2]): 46.3 nM | Functional IC50, C3b deposition, human serum Exp #3 (human MASP-2 [2]): 62.2 nM | Functional IC50, C3b deposition, human serum Exp #4 (human MASP-2 [2]): 38.4 nM | Functional IC50, C3b deposition, non-human primate serum Exp #1 [4]: 115 nM | Functional IC50, C3b deposition, non-human primate serum Exp #2 [4]: 203 nM | Kd [12]: 8.4 nM | Kd [17]: 0.02 nM

B9: scFv daughter clone 17N16m_d17N9 (scFv)
scFv: QVQLQQSGPGLVKPSQTLSLTCAISGDSVSSTSAAWNWIRQSPSRGLEWLGRTYYRSKWYNDYAVSVKSRITINPDTSKNQFSLQLNSVTPEDTAVYYCARDPFGVPFDIWGQGTMVTVSSKLSGSASAPKLEEGEFSEARVSYELIQPPSVSVAPGQTATITCAGDNLGKKRVHWYQQRPGQAPVLVIYDDSDRPSGIPDRFSASNSGNTATLTITRGEAGDEADYYCQVWDIATDHVVFGGGTKLTVLAAAGSEQKLISE
notes: also called 17N9 daughter clone
Complement assay IC50 (human MASP-2 [18]): 10.3 nM | IC50, C3c release, 1% human serum (first experiment) (human MASP-2 [19]): 39.9 nM | IC50, C3c release, 1% human serum (second experiment) (human MASP-2 [19]): 57.7 nM | IC50, C3c release, 0.375% rat serum (first experiment) [20]: 79.3 nM | IC50, C3c release, 0.375% rat serum (second experiment) [20]: 141 nM | IC50, C3c release, 0.2% African Green serum (first experiment) [21]: 63.8 nM | IC50, C3c release, 0.2% African Green serum (second experiment) [21]: 81.1 nM | 1% human serum C3 assay IC50 (human MASP-2 [8]): 48 nM | 90% human serum C3 assay IC50 (human MASP-2 [8]): 15 nM | 90% human serum C4 assay IC50 (human MASP-2 [8]): 230 nM | Kd [22]: 48.6 nM | EC50 (read off the curve) [23]: ~0.8 nM
